Among the data in patent US20210122813A1 (Kyowa Kirin, published 2021) are Kd values, retold here.

Usually Kd stands for the equilibrium constant for the complex coming apart. Read a low Kd as a tighter complex.

The chains are these.
T1: human BMP10 mature dimer (manufactured by R & D Systems, Inc., Cat #2926-BP) (human, UniProt O95393 317-424)
T1 construct: Bought product; also called human mature BMP10; mature BMP10
T1 sequence: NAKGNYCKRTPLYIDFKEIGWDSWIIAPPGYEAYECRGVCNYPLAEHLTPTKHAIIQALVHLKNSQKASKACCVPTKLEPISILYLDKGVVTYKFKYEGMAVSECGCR

B1: VLres04HVmut04 (antibody, V domains shown)
VH: QVQLQESGPDLVQPSQTLDITCTVSGFSLTTYNVHWVRQPPGKGLEWMGTMWNGGGIDYNSAFKSRLAISRDTSKNEVFLKMDSLQTDDTAKYFCARLGYYVDYWGQGILVTVSS
VL: QFALIQSDSMSTSAGSTVKLSCKRSTGNIGSSYVYWYQQHEGRSPTTMIYDGDKRPDGVPDRFSGSIDSSSNSASLTINDVQIEDEAVYFCQSFSSGIKFIFGGGTKLTVL
notes: Humanized 18C1 antibody; also called VLres04HVmut04 antibody; hz18C1 antibody
B2: VLres07VHres16 (antibody, V domains shown)
VH: QVQLKETGPDLVQPTQTLDITCTVSGFSLTTYNVHWVRQPPGKGLEWMGTMWNGGGIDYNSAFKSRLAISRDTSKSEVFLKMDSLQTDDTAKYFCARLGYYVDYWGQGIMVTVSS
VL: QFALIQSDSMSTSLGSTVTLSCKRSTGNIGSSYVYWYQQHEGRSPTTMIYDGDKRPDGVPDRFSGSIDSSSNSASLTINDVQVEDEAIYFCQSFSSGIKFIFGGGTKLTVL
notes: Humanized 18C1 antibody; also called VLres07VHres16 antibody; hz18C1 antibody
B3: VLres08HVmut04 (antibody, V domains shown)
VH: QVQLQESGPDLVQPSQTLDITCTVSGFSLTTYNVHWVRQPPGKGLEWMGTMWNGGGIDYNSAFKSRLAISRDTSKNEVFLKMDSLQTDDTAKYFCARLGYYVDYWGQGILVTVSS
VL: QFALIQSDSMSTSAGSTVKLSCKRSTGNIGSSYVYWYQQHEGRSPTTMIYDGDKRPDGVPDRFSGSIDSSSNSASLTINDVQVEDEAIYFCQSFSSGIKFIFGGGTKLTVL
notes: Humanized 18C1 antibody; also called hz18C1 antibody; anti-BMP10 humanized antibody
B4: VLres06HVmut10 (antibody, V domains shown)
VH: QVQLQESGPDLVQPSQTLDITCTVSGFSLTTYNVHWVRQPPGKGLEWMGTMWNGGGIDYNSAFKDRLAISRDTSKNEVFLKMDSLQTDDTAVYFCARLGYYVDYWGQGILVTVSS
VL: QFVLIQSDSMSTSAGSTVKLSCKRSTGNIGSSYVYWYQQHEGRSPTTMIYDGDKRPDGVPDRFSGSIDSSSNSASLTINDVQVEDEAIYFCQSFSSGIKFIFGGGTKLTVL
notes: as for B3
B5: VLres10HVmut08 (antibody, V domains shown)
VH: QVQLQESGPDLVKPSQTLDITCTVSGFSLTTYNVHWVRQPPGKGLEWMGTMWNGGGIDYNSAFKDRLTISRDTSKNQVFLKMDSLQTDDTAVYFCARLGYYVDYWGQGILVTVSS
VL: QFVLIQSDSMSTSAGSTVKLSCKRSTGNIGSSYVYWYQQHEGRSPTTMIYDGDKRPDGVPDRFSGSIDSSSNSASLTINNVQIEDEAVYFCQSFSSGIKFIFGGGTKLTVL
notes: as for B3
B6: VLres06HVmut02 (antibody, V domains shown)
VH: QVQLQESGPDLVKPSQTLDITCTVSGFSLTTYNVHWVRQPPGKGLEWMGTMWNGGGIDYNSAFKSRLTISRDTSKNQVFLKMDSLQTDDTAKYFCARLGYYVDYWGQGILVTVSS
VL: QFVLIQSDSMSTSAGSTVKLSCKRSTGNIGSSYVYWYQQHEGRSPTTMIYDGDKRPDGVPDRFSGSIDSSSNSASLTINDVQVEDEAIYFCQSFSSGIKFIFGGGTKLTVL
notes: as for B3
B7: VLres02HVmut07 (antibody, V domains shown)
VH: QVQLQESGPDLVQPSQTLDITCTVSGFSLTTYNVHWVRQPPGKGLEWMGTMWNGGGIDYNSAFKDRLAISRDTSKNQVSLKMDSLQTDDTAKYFCARLGYYVDYWGQGILVTVSS
VL: QFVLIQSDSMSTSAGSTVKLSCKRSTGNIGSSYVYWYQQHEGRSPTTMIYDGDKRPDGVPDRFSGSIDSSSNSASLTINDVQIEDEAVYFCQSFSSGIKFIFGGGTKLTVL
notes: as for B3
B8: VLres14HVmut07 (antibody, V domains shown)
VH: QVQLQESGPDLVQPSQTLDITCTVSGFSLTTYNVHWVRQPPGKGLEWMGTMWNGGGIDYNSAFKDRLAISRDTSKNQVSLKMDSLQTDDTAKYFCARLGYYVDYWGQGILVTVSS
VL: QFVLIQSDSMSTSAGSTVKLSCKRSTGNIGSSYVYWYQQHEGRSPTTMIYDGDKRPDGVPDRFSGSIDSSSNSAFLTINDVQIEDEAVYFCQSFSSGIKFIFGGGTKLTVL
notes: as for B3
B9: VLres04VHres16 (antibody, V domains shown)
VH: QVQLKETGPDLVQPTQTLDITCTVSGFSLTTYNVHWVRQPPGKGLEWMGTMWNGGGIDYNSAFKSRLAISRDTSKSEVFLKMDSLQTDDTAKYFCARLGYYVDYWGQGIMVTVSS
VL: QFALIQSDSMSTSAGSTVKLSCKRSTGNIGSSYVYWYQQHEGRSPTTMIYDGDKRPDGVPDRFSGSIDSSSNSASLTINDVQIEDEAVYFCQSFSSGIKFIFGGGTKLTVL
notes: Humanized 18C1 antibody; also called VLres04VHres16 antibody; hz18C1 antibody
B10: VLres14HVmut10 (antibody, V domains shown)
VH: QVQLQESGPDLVQPSQTLDITCTVSGFSLTTYNVHWVRQPPGKGLEWMGTMWNGGGIDYNSAFKDRLAISRDTSKNEVFLKMDSLQTDDTAVYFCARLGYYVDYWGQGILVTVSS
VL: QFVLIQSDSMSTSAGSTVKLSCKRSTGNIGSSYVYWYQQHEGRSPTTMIYDGDKRPDGVPDRFSGSIDSSSNSAFLTINDVQIEDEAVYFCQSFSSGIKFIFGGGTKLTVL
notes: Humanized 18C1 antibody; also called VLres14HVmut10 antibody; hz18C1 antibody
B11: VLres08VHres16 (antibody, V domains shown)
VH: QVQLKETGPDLVQPTQTLDITCTVSGFSLTTYNVHWVRQPPGKGLEWMGTMWNGGGIDYNSAFKSRLAISRDTSKSEVFLKMDSLQTDDTAKYFCARLGYYVDYWGQGIMVTVSS
VL: QFALIQSDSMSTSAGSTVKLSCKRSTGNIGSSYVYWYQQHEGRSPTTMIYDGDKRPDGVPDRFSGSIDSSSNSASLTINDVQVEDEAIYFCQSFSSGIKFIFGGGTKLTVL
notes: Humanized 18C1 antibody; also called VLres08VHres16 antibody; hz18C1 antibody
B12: VLres10HVmut04 (antibody, V domains shown)
VH: QVQLQESGPDLVQPSQTLDITCTVSGFSLTTYNVHWVRQPPGKGLEWMGTMWNGGGIDYNSAFKSRLAISRDTSKNEVFLKMDSLQTDDTAKYFCARLGYYVDYWGQGILVTVSS
VL: QFVLIQSDSMSTSAGSTVKLSCKRSTGNIGSSYVYWYQQHEGRSPTTMIYDGDKRPDGVPDRFSGSIDSSSNSASLTINNVQIEDEAVYFCQSFSSGIKFIFGGGTKLTVL
notes: as for B3
B13: VLres10VHres16 (antibody, V domains shown)
VH: QVQLKETGPDLVQPTQTLDITCTVSGFSLTTYNVHWVRQPPGKGLEWMGTMWNGGGIDYNSAFKSRLAISRDTSKSEVFLKMDSLQTDDTAKYFCARLGYYVDYWGQGIMVTVSS
VL: QFVLIQSDSMSTSAGSTVKLSCKRSTGNIGSSYVYWYQQHEGRSPTTMIYDGDKRPDGVPDRFSGSIDSSSNSASLTINNVQIEDEAVYFCQSFSSGIKFIFGGGTKLTVL
notes: Humanized 18C1 antibody; also called VLres10VHres16 antibody; hz18C1 antibody
B14: VLres07HVmut10 (antibody, V domains shown)
VH: QVQLQESGPDLVQPSQTLDITCTVSGFSLTTYNVHWVRQPPGKGLEWMGTMWNGGGIDYNSAFKDRLAISRDTSKNEVFLKMDSLQTDDTAVYFCARLGYYVDYWGQGILVTVSS
VL: QFALIQSDSMSTSLGSTVTLSCKRSTGNIGSSYVYWYQQHEGRSPTTMIYDGDKRPDGVPDRFSGSIDSSSNSASLTINDVQVEDEAIYFCQSFSSGIKFIFGGGTKLTVL
notes: Humanized 18C1 antibody; also called VLres07HVmut10 antibody; hz18C1 antibody
B15: VLres08HVmut08 (antibody, V domains shown)
VH: QVQLQESGPDLVKPSQTLDITCTVSGFSLTTYNVHWVRQPPGKGLEWMGTMWNGGGIDYNSAFKDRLTISRDTSKNQVFLKMDSLQTDDTAVYFCARLGYYVDYWGQGILVTVSS
VL: QFALIQSDSMSTSAGSTVKLSCKRSTGNIGSSYVYWYQQHEGRSPTTMIYDGDKRPDGVPDRFSGSIDSSSNSASLTINDVQVEDEAIYFCQSFSSGIKFIFGGGTKLTVL
notes: as for B3
B16: VLres02HVmut08 (antibody, V domains shown)
VH: QVQLQESGPDLVKPSQTLDITCTVSGFSLTTYNVHWVRQPPGKGLEWMGTMWNGGGIDYNSAFKDRLTISRDTSKNQVFLKMDSLQTDDTAVYFCARLGYYVDYWGQGILVTVSS
VL: QFVLIQSDSMSTSAGSTVKLSCKRSTGNIGSSYVYWYQQHEGRSPTTMIYDGDKRPDGVPDRFSGSIDSSSNSASLTINDVQIEDEAVYFCQSFSSGIKFIFGGGTKLTVL
notes: as for B3
B17: VLres10HVmut02 (antibody, V domains shown)
VH: QVQLQESGPDLVKPSQTLDITCTVSGFSLTTYNVHWVRQPPGKGLEWMGTMWNGGGIDYNSAFKSRLTISRDTSKNQVFLKMDSLQTDDTAKYFCARLGYYVDYWGQGILVTVSS
VL: QFVLIQSDSMSTSAGSTVKLSCKRSTGNIGSSYVYWYQQHEGRSPTTMIYDGDKRPDGVPDRFSGSIDSSSNSASLTINNVQIEDEAVYFCQSFSSGIKFIFGGGTKLTVL
notes: Humanized 18C1 antibody; also called VLres10HVmut02 antibody; hz18C1 antibody
B18: VLres14HVmut08 (antibody, V domains shown)
VH: QVQLQESGPDLVKPSQTLDITCTVSGFSLTTYNVHWVRQPPGKGLEWMGTMWNGGGIDYNSAFKDRLTISRDTSKNQVFLKMDSLQTDDTAVYFCARLGYYVDYWGQGILVTVSS
VL: QFVLIQSDSMSTSAGSTVKLSCKRSTGNIGSSYVYWYQQHEGRSPTTMIYDGDKRPDGVPDRFSGSIDSSSNSAFLTINDVQIEDEAVYFCQSFSSGIKFIFGGGTKLTVL
notes: as for B3
B19: VLres10HVmut10 (antibody, V domains shown)
VH: QVQLQESGPDLVQPSQTLDITCTVSGFSLTTYNVHWVRQPPGKGLEWMGTMWNGGGIDYNSAFKDRLAISRDTSKNEVFLKMDSLQTDDTAVYFCARLGYYVDYWGQGILVTVSS
VL: QFVLIQSDSMSTSAGSTVKLSCKRSTGNIGSSYVYWYQQHEGRSPTTMIYDGDKRPDGVPDRFSGSIDSSSNSASLTINNVQIEDEAVYFCQSFSSGIKFIFGGGTKLTVL
notes: Humanized 18C1 antibody; also called VLres10HVmut10 antibody; hz18C1 antibody

This experiment addresses T1, human BMP10 mature dimer (manufactured …). Kind of experiment: SPR (Biacore T100), antibody captured by anti-human IgG, human BMP10 mature dimer as analyte. Here is the method:
The binding activity of the anti-BMP10 antibody was measured as follows. An anti-human IgG antibody was immobilized on a CMS sensor chip (manufactured by GE Healthcare Bio-Sciences, Inc., BR100530) using Human Antibody Capture Kit (manufactured by GE Healthcare Bio-Sciences Corporation, Cat #BR-1008-39) according to the attached protocol. To a flow cell in which the anti-human IgG antibody was immobilized, the antibody prepared at 5 μg/mL was added at a flow rate of 10 μL/min for 10 seconds.
Subsequently, human mature BMP10 prepared at 5 concentrations by 3-fold serial dilution from the 100 ng/mL was added thereto at a flow rate of 30 μL/min, and a binding reaction was monitored for 1 minute and a dissociation reaction was monitored for 10 minutes. The obtained sensorgram was analyzed using Bia Evaluation Software (manufactured by GE Healthcare Bio-Sciences Corporation), and the kinetic constant of each antibody was calculated. The calculated association rate constant (ka), dissociation rate constant (kd), and dissociation constant [kd/ka=KD] of each antibody are shown in Table 4.
A general note: SPR reads the build-up and loss of mass on a sensor chip optically.
With B1, the affinity, expressed as Kd, was 3.19 pM.

As to B2, the Kd was 3.11 pM.

B3 came in with a Kd of 2.88 pM.

As for B4, the Kd came out at 2.94 pM.

B5 returned a Kd of 3.06 pM.

In turn, B6 showed a Kd of 3.37 pM.

With B7, the Kd was 2.97 pM.

The molecule B8 came in with an equilibrium dissociation constant (Kd) of 2.99 pM.

Turning to B9, the affinity, expressed as Kd, was 3.21 pM.

The molecule B10 came in with a Kd of 2.84 pM.

The molecule B11 returned a Kd of 3.25 pM.

With B12, the Kd was determined as 3.2 pM.

In turn, B13 registered a Kd of 3.57 pM.

In turn, B14 displayed a Kd of 2.69 pM.

Regarding B15, binding was put at a Kd of 2.99 pM.

As for B16, binding was put at a Kd of 3.05 pM.

For B17, binding was put at a Kd of 3.41 pM.

Molecule B18 yielded an equilibrium dissociation constant (Kd) of 2.71 pM.

In turn, B19 returned a Kd of 2.19 pM.
